Experimental data published in paper PMC11334520, “In vitro higher-order oligomeric assembly of the respiratory syncytial virus M2-1 protein with longer RNAs”.

Experiments:
Conditions in all cases: protein: recombinant; tags: N-terminal His6-GFP, cleaved with TEV; chain copies: 4
M2-1 [1] = molecular target: T1, M2-1 (human respiratory syncytial virus …, UniProt P04545 1-194); assay: SEC; excess RNA; EMSA: 20 mM HEPES pH 7.5, 200 mM NaCl, 2 mM TCEP, 5% glycerol, room temperature 1 h, 4% native PAGE, SYBR Gold; SEC: Superdex 200 Increase 10/300, buffer not given
T1 sequence: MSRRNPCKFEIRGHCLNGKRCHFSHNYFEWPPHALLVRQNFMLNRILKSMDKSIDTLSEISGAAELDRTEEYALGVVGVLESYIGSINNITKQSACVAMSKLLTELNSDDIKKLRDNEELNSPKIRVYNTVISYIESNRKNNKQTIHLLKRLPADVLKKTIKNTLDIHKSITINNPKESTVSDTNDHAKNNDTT

M2-1 [2] = molecular target: T1, M2-1; assay: EMSA; 0.5 uM RNA; Hill 8.10; EMSA: 20 mM HEPES pH 7.5, 200 mM NaCl, 2 mM TCEP, 5% glycerol, room temperature 1 h, 4% native PAGE, SYBR Gold; SEC: Superdex 200 Increase 10/300, buffer not given
M2-1 [3] = molecular target: T1, M2-1; assay: EMSA; 0.5 uM RNA; Hill 0.83; EMSA: 20 mM HEPES pH 7.5, 200 mM NaCl, 2 mM TCEP, 5% glycerol, room temperature 1 h, 4% native PAGE, SYBR Gold; SEC: Superdex 200 Increase 10/300, buffer not given
M2-1 [4] = molecular target: T1, M2-1; assay: EMSA; 0.5 uM RNA; Hill 5.17; EMSA: 20 mM HEPES pH 7.5, 200 mM NaCl, 2 mM TCEP, 5% glycerol, room temperature 1 h, 4% native PAGE, SYBR Gold; SEC: Superdex 200 Increase 10/300, buffer not given
M2-1 [5] = molecular target: T1, M2-1; assay: EMSA; 0.5 uM RNA; Hill 0.95; EMSA: 20 mM HEPES pH 7.5, 200 mM NaCl, 2 mM TCEP, 5% glycerol, room temperature 1 h, 4% native PAGE, SYBR Gold; SEC: Superdex 200 Increase 10/300, buffer not given

## CCCCCCCCCCCCCCCC (ssRNA) [Poly16C]
M2-1 [1]
  binding result: no binding

## UUUUUUUUUUUUUUUUUUUUUUUUUUUU (ssRNA) [Poly28U]
M2-1 [1]
  binding result: binds

## UUUUUUUUUUUUUUUU (ssRNA) [Poly16U]
M2-1 [1]
  binding result: no binding

## CUAUUUUUAAUUAACU (ssRNA) [SH16(-)]
M2-1 [1]
  binding result: no binding

## AAAAAAAAAAAAAAAAAAAAAAAA (ssRNA) [Poly24A]
M2-1 [2]
  Kd: 4440 nM

## AGUUAAUUAAAAAUAG (ssRNA) [SH16(+)]
M2-1 [1]
  binding result: binds

## AAAAAAAAA (ssRNA) [Poly9A]
M2-1 [3]
  Kd: 1940 nM

## AAAAAAAAAAAAAAAAAAA (ssRNA) [Poly19A]
M2-1 [4]
  Kd: 2720 nM

## AAAAAAAAAAAAAA (ssRNA) [Poly14A]
M2-1 [5]
  Kd: 580 nM

## AAAAAAAAAAAAAAAA (ssRNA) [Poly16A]
M2-1 [1]
  binding result: binds

## UUUUUUUUUUUUUUUUUUUUU (ssRNA) [Poly21U]
M2-1 [1]
  binding result: binds
